According to the supplement of paper PMC11780869:

Test system: Bacillus subtilis
Assay: cleaved RNA product abundance (RNA/gDNA barcode ratio) relative to median wild-type variant (ratio to wild type); higher = more accumulation of the downstream cleavage product
Description: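 MPRA in B. subtilis. Mutagenized RNase Y cleavage-site regions (9% mutation rate) were inserted into a barcoded reporter mRNA (truncated aprE or tetM). Cells were grown in LB at 37°C to OD600 0.3. The cleaved RNA isoform was gel-purified and its barcodes counted; the RNA:gDNA barcode ratio was normalised to the median wild-type variant, and the median over barcodes is reported per variant. The printed sequence is the variable window only; the reporter flanks are not printed.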

[1] = experiment (reporter, strain, medium): exp 8a: truncated aprE reporter, strain BJT201 with 2% xylose (RNase J1 expressed), cleavage site: glnRA (positions -5 to +31 mutated)
[2] = experiment (reporter, strain, medium): exp 4a: truncated aprE reporter, strain BJT201 with 2% xylose (RNase J1 expressed), cleavage site: cggR-gapA (positions -7 to +36 mutated)
[3] = experiment (reporter, strain, medium): exp 2b: truncated aprE reporter, strain BJT200, cleavage site: cggR-gapA (positions -7 to +36 mutated)

## CGACATGTCCCGCTTCTTTCATTAATCCGTTAGCAAATGTTTTGATATATACATTTACCTTTTAAGAGGAGGAAT
[1]
  cleaved RNA product abundance: 0.418

## CGACATGTCCCGCTTCTTTCATTATTCCGTTAGCAACTGTTTTGCTATATACATTTACATTTTAAGAGGAGGAAT
[1]
  cleaved RNA product abundance: 1.98

## ACAGACGAAGGAGCCGCAAAGAAGATATTAAGGGATGAATAATCGCTCAATATAAATATCTCTCACTTATTTAAA
[2]
  cleaved RNA product abundance: 0.228

## ACAGACGAAGGAGCCGCAAAGAAGTTATTAAGGGACGAATAATCCCTCAATCTAAATATCTCTCACTTATTTAAA
[2]
  cleaved RNA product abundance: 0.0944

## CGACATGTCCCGCTTCTTTCATTAATCCCTTAGCAACTGTTTAGCTATATACATTTACCTTTTAAGAGGAGGAAT
[1]
  cleaved RNA product abundance: 0.236

## ACAGACGAAGGAGCCGCAAACAAGTTATTAAGTGATGAATAATCCCTCAATATAAATATCTCTCACTTATTTAAA
[3]
  cleaved RNA product abundance: 0.0954
[2]
  cleaved RNA product abundance: 0.0967

## ACAGACGAAGGAGCCGCAAAGAAGTTATTAGGGGATGGATAATCCCTCAATATAAATATCTCTCACTTATTTAAA
[3]
  cleaved RNA product abundance: 0.481
[2]
  cleaved RNA product abundance: 0.709

## ACAGACGAAGGAGCCGCAAAGAAGTTATTAAAGGATGAATAACCCCTCAATATAAATATCTCTCACTTATTTAAA
[3]
  cleaved RNA product abundance: 0.105
[2]
  cleaved RNA product abundance: 0.108

## ACAGACGAAGGAGCCGCAAAGAAGTTATTAAGGGATGAATGATCCTTCAATATAAATATCTCTCACTTATTTAAA
[2]
  cleaved RNA product abundance: 0.258

## ACAGACGAAGGAGCCGCAAAGAAGTTCTTAAGGGATGAATAATCCATCAATATAAATATCTCTCACTTATTTAAA
[2]
  cleaved RNA product abundance: 0.199

## ACAGACGAAGGAGCCGCAAAGTAGTTTTTAAGGGATGAATAATCCCTCAATATAAATATCTCTCACTTATTTAAA
[2]
  cleaved RNA product abundance: 0.37

## ACAGACGAAGGAGCCGCAAAGAAGTTATTTAGTGATGAATAATCCCTCAATATAAATATCTCTCACTTATTTAAA
[3]
  cleaved RNA product abundance: 0.0988
[2]
  cleaved RNA product abundance: 0.111

## CGACATGTCCCGCTTCTTTCATTAATCCGTTATCAACTGTTTTAATATATACATTTACCTTTTAAGAGGAGGAAT
[1]
  cleaved RNA product abundance: 0.415

## ACAGACGAAGGAGCCGCAACGATGTTATTAAGGGATGAATAATCCCTCAATATAAATATCTCTCACTTATTTAAA
[2]
  cleaved RNA product abundance: 1.36

## ACAGACGAAGGAGCCGCAAAGAAGTTATTAAGGGATCAATAATCCCTCAATATAAATACCTCTCACTTATTTAAA
[3]
  cleaved RNA product abundance: 0.479
[2]
  cleaved RNA product abundance: 0.36

## CGACATGTCCCGCTTCTTTCATTAATCCGTTAGCAACAGTTTTACTATATACATTTACCTTTTAAGAGGAGGAAT
[1]
  cleaved RNA product abundance: 0.561

## ACAGACGAAGGAGCCGCAAAGAAGTTATTAAGGGATGAATAATCCCTTAATATATATATCTCTCACTTATTTAAA
[2]
  cleaved RNA product abundance: 0.895

## CGACATGTCCCGCTTCTTTCATTAATCCGTTAGTAACTGTTTTGCTATATACATATACCTTTTAAGAGGAGGAAT
[1]
  cleaved RNA product abundance: 0.305

## CGACATGTCCCGCTTCTTTCATTATTCCGTTAGCAACTGTTTAGGTATATACATTTACCTTTTAAGAGGAGGAAT
[1]
  cleaved RNA product abundance: 0.443

## ACAGACGAAGGAGCCGCAAAGAAATTATTATGGGATGAATAATCCCTCAATATAAATATCTCTCACTTATTTAAA
[2]
  cleaved RNA product abundance: 0.277

## ACAGACGAAGGAGCCGCACAGAAGTTATAAAGGGATGAATAATCCCTCAATATAAATATCTCTCACTTATTTAAA
[2]
  cleaved RNA product abundance: 0.414

## ACAGACGAAGGAGCCGCAAAAAAGTTATTAAGGGATGCATAATCCCTCAATATAAATATCTCTCACTTATTTAAA
[3]
  cleaved RNA product abundance: 0.986
[2]
  cleaved RNA product abundance: 1.02

## CGACATGTCCCGCTTCTTTCATTAATCCGTTAGCAACTGTTTTGCTATATACATTTATTTTTTAAGAGGAGGAAT
[1]
  cleaved RNA product abundance: 2.39

## CGACATGTCCCGCTTCTTTCATTAATCCTTTAGCAACTGTTTCGCTATATACATTTACCTTTTAAGAGGAGGAAT
[1]
  cleaved RNA product abundance: 0.282

## ACAGACGAAGGAGCCGCAAAGAAGTTATTAAGGAATGAATTATCCCTCAATATAAATATCTCTCACTTATTTAAA
[2]
  cleaved RNA product abundance: 0.0807

## CGACATGTCCCGCTTCTTTCATTAATCCGTTAGCAACCCTTTTGCTATATACATTTACCTTTTAAGAGGAGGAAT
[1]
  cleaved RNA product abundance: 0.451

## ACAGACGAAGGAGCCGCAAAGAAGTTATTAAGGGAAGAAAAATCCCTCAATATAAATATCTCTCACTTATTTAAA
[3]
  cleaved RNA product abundance: 0.684
[2]
  cleaved RNA product abundance: 0.436

## ACAGACGAAGGAGCCGCAAAGAAGTTATTAATGGATGAATAATCCTTCAATATAAATATCTCTCACTTATTTAAA
[3]
  cleaved RNA product abundance: 0.212
[2]
  cleaved RNA product abundance: 0.191

## CGACATGTCCCGCTTCTTTCATTAATCCGTTAGCAACTGTAATGCTATATACATTTACCTTTTAAGAGGAGGAAT
[1]
  cleaved RNA product abundance: 1.06

## ACAGACGAAGGAGCCGCAAAGAAGTTATTAAGGGGTGAATAATCCGTCAATATAAATATCTCTCACTTATTTAAA
[3]
  cleaved RNA product abundance: 0.159
[2]
  cleaved RNA product abundance: 0.0683

## ACAGACGAAGGAGCCGCAAAGAAGTTATTAACGGACGAATAATCCCTCAATATAAATATCTCTCACTTATTTAAA
[3]
  cleaved RNA product abundance: 0.0519
[2]
  cleaved RNA product abundance: 0.0823

## ACAGACGAAGGAGCCGCAAAGAAATTATTAAGGCATGAATAATCCCTCAATATAAATATCTCTCACTTATTTAAA
[3]
  cleaved RNA product abundance: 0.109
[2]
  cleaved RNA product abundance: 0.122

## CGACATGTCCCGCTTCTTTCATTAATCCGGTAGCAACTGTTTTGCTATATACATTTACCTTTTAAGAGGAGGAAT
[1]
  cleaved RNA product abundance: 0.945

## ACAGACGAAGGAGCCGCAAAGAAGTTATTAAAAGATGAATAATCCCTCAATATAAATATCTCTCACTTATTTAAA
[3]
  cleaved RNA product abundance: 0.107
[2]
  cleaved RNA product abundance: 0.0921

## ACAGACGAAGGAGCCGCAAAGAAGTTATTAAGAGATCAATAATCCCTCAATATAAATATCTCTCACTTATTTAAA
[3]
  cleaved RNA product abundance: 0.0924
[2]
  cleaved RNA product abundance: 0.0785

## ACAGACGAAGGAGCCGCAAAGAAGTTATTAAGGAATGAATAATTCCTCAATATAAATATCTCTCACTTATTTAAA
[3]
  cleaved RNA product abundance: 0.756
[2]
  cleaved RNA product abundance: 0.872

## ACAGACGAAGGAGCCGCAAACAAGTAATTAAGGGATGAATAATCCCTCAATATAAATATCTCTCACTTATTTAAA
[3]
  cleaved RNA product abundance: 0.177
[2]
  cleaved RNA product abundance: 0.214

## ACAGACGAAGGAGCCGCAAAGAAGATATTACGGGATGAATAATCCCTCAATATAAATATCTCTCACTTATTTAAA
[3]
  cleaved RNA product abundance: 0.409
[2]
  cleaved RNA product abundance: 0.351

## CGACATGTCCCGCTTCTTTCATTAACCCGTTAGCAACTGTTTTGCTATATACCTATACCTTTTAAGAGGAGGAAT
[1]
  cleaved RNA product abundance: 0.789

## CGACATGTCCCGCTTCTTTCATTAATCCGTTATCAACTGTTTTGCTATATCCATTTACCTTTTAAGAGGAGGAAT
[1]
  cleaved RNA product abundance: 0.136

## CGACATGTCCCGCTTCTTTCATTAATCCGTTAGCAACTGTTTTGCTATATACATCTACCTTTTAAGAGGAGGAAT
[1]
  cleaved RNA product abundance: 0.867

## CGACATGTCCCGCTTCTTTCATTAATCCGTTAGCCACTGTTTTGCTATAAACATTTACCTTTTAAGAGGAGGAAT
[1]
  cleaved RNA product abundance: 0.219

## CGACATGTCCCGCTTCTTTCATTAATCCGTTAGCAACTGTTTTGCTATATGCATTTAACTTTTAAGAGGAGGAAT
[1]
  cleaved RNA product abundance: 0.452

## ACAGACGAAGGAGCCGCAAAGAACTTACTAAGGGATGAATAATCCCTCAATATAAATATCTCTCACTTATTTAAA
[2]
  cleaved RNA product abundance: 0.237

## CGACATGTCCCGCTTCTTTCATTAATCAGTCAGCAACTGTTTTGCTATATACATTTACCTTTTAAGAGGAGGAAT
[1]
  cleaved RNA product abundance: 0.367

## ACAGACGAAGGAGCCGCAAAGAAGTTATTAAGGGATGAATAATACCTCAATATAAATAACTCTCACTTATTTAAA
[3]
  cleaved RNA product abundance: 0.144
[2]
  cleaved RNA product abundance: 0.0774

## ACAGACGAAGGAGCCGCACAGAAGTTCTTAAGGGATGAATAATCCCTCAATATAAATATCTCTCACTTATTTAAA
[2]
  cleaved RNA product abundance: 0.275

## CGACATGTCCCGCTTCTTTCATTAATCCGTAAGCAACTGTTTTGCTATGTACATTTACCTTTTAAGAGGAGGAAT
[1]
  cleaved RNA product abundance: 0.0895

## ACAGACGAAGGAGCCGCAAAGAAGTTATTAAGGAATGAATAATCCCTCAATATAAATAACTCTCACTTATTTAAA
[2]
  cleaved RNA product abundance: 0.21

## ACAGACGAAGGAGCCGCAAAGATGTTATTAAGTGATGAATAATCCCTCAATATAAATATCTCTCACTTATTTAAA
[3]
  cleaved RNA product abundance: 0.1
[2]
  cleaved RNA product abundance: 0.11

## CGACATGTCCCGCTTCTTTCATTAATCCGTTAGCAACCGTTTTGCTTTATACATTTACCTTTTAAGAGGAGGAAT
[1]
  cleaved RNA product abundance: 0.145

## CGACATGTCCCGCTTCTTTCATTAATCCGTTAGCAACTGTTTTGCTTTATACATTTAACTTTTAAGAGGAGGAAT
[1]
  cleaved RNA product abundance: 0.346

## ACAGACGAAGGAGCCGCAAAGAAGTTGTTAAGGGATGAATAATCCGTCAATATAAATATCTCTCACTTATTTAAA
[2]
  cleaved RNA product abundance: 0.418

## ACAGACGAAGGAGCCGCAAAGAAGATATCAAGGGATGAATAATCCCTCAATATAAATATCTCTCACTTATTTAAA
[2]
  cleaved RNA product abundance: 0.522

## CGACATGTCCCGCTTCTTTCATTAATCCGTTAGCAAGTTTTTTGCTATATACATTTACCTTTTAAGAGGAGGAAT
[1]
  cleaved RNA product abundance: 0.974

## CGACATGTCCCGCTTCTTTCATTATTCCGTAAGCAACTGTTTTGCTATATACATTTACCTTTTAAGAGGAGGAAT
[1]
  cleaved RNA product abundance: 0.594

## CGACATGTCCCGCTTCTTTCATTAATCCGTTAGCAACTGTTTTGCCATATACATTTACATTTTAAGAGGAGGAAT
[1]
  cleaved RNA product abundance: 0.355

## ACAGACGAAGGAGCCGCAAAGAAGTTATTAAAGGATGAATAATCCCTCGATATAAATATCTCTCACTTATTTAAA
[3]
  cleaved RNA product abundance: 0.0861
[2]
  cleaved RNA product abundance: 0.0487
